Article doi:10.1101/639963
Values belong to the molecule of their own block, whether it stands above or below them.

Legend:
[1] = molecular target: Myosin VI N-terminal tail fragment, large-insert isoform (NMVI_(TAIL(LI))); experiment: FRET or BRET
[2] = molecular target: Myosin VI N-terminal tail fragment, non-insert isoform (NMVI_(TAIL(NI))); experiment: FRET or BRET
[3] = molecular target: Dab2 C-terminal region (residues 649-770) (UniProt P98082); experiment: FRET or BRET
[4] = molecular target: Myosin VI tail, large-insert isoform (MVI_(TAIL(LI))); experiment: FRET or BRET
[5] = molecular target: nuclear dot protein 52 (NDP52/CALCOCO2) (UniProt Q13137); experiment: FRET or BRET
[6] = molecular target: Myosin VI tail, non-insert isoform (MVI_(TAIL(NI)), aa 814-1253); experiment: FRET or BRET
[7] = molecular target: T1, Dab2 C-terminal region (myosin VI binding site) (Homo sapiens, UniProt P98082 649-770); experiment: fluorescence anisotropy
T1 sequence: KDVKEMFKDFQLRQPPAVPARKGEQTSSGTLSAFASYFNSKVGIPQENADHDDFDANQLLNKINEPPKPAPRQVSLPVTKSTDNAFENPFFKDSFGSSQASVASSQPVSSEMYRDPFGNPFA

[8] = molecular target: Myosin VI CBD (cargo-binding domain; non-insert isoform) (Homo sapiens, UniProt Q9UM54-5 1060-1253); experiment: fluorescence anisotropy

Chain of nuclear dot protein 52 (NDP52/CALCOCO2) (Q13137 whole entry, the tested form may be a part, canonical isoform): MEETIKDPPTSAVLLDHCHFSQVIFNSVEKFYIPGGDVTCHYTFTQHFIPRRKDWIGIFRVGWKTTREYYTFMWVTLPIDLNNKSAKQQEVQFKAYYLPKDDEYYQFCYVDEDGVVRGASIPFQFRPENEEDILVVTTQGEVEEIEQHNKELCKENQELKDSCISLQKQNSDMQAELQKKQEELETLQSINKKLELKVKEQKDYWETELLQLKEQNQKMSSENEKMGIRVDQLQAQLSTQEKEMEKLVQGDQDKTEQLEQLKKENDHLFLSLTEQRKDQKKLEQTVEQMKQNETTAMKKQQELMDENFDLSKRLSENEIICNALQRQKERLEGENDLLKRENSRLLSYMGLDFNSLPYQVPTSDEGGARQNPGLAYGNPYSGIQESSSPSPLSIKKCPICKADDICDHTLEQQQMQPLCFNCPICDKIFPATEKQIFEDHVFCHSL

Kd [3]: 3.5 µM | Kd^DIMER with 20 μM Dab2 [4]: 3.3 µM | Kd^DIMER with 20 μM NDP52 [4]: 9.3 µM | Kd [5]: 17.3 µM
Molecule: Myosin VI tail, large-insert isoform (MVI_(TAIL(LI))) (domain or fragment)

Kd [3]: 11.6 µM | Kd^DIMER with 20 μM Dab2 [6]: 5.3 µM | Kd^DIMER with 20 μM NDP52 [6]: 4.3 µM | Kd [5]: 2.1 µM
Molecule: Myosin VI tail, non-insert isoform (MVI_(TAIL(NI)), aa 814-1253) (domain or fragment)

Second part, the molecule before the results:

Molecule: Myosin VI C-terminal globular cargo binding domain (CBD) (domain or fragment)
Kd with 10 μM Dab2 [1]: 6 µM | Kd with 10 μM NDP52 [2]: 4.1 µM

B1: ds40 FAM-DNA (40 bp) (dsDNA)
DNA 1: TTAGTTGTTCGTAGTGCTCGTCTGGCTCTGGATTACCCGC
DNA 2: GCGGGTAATCCAGAGCCAGACGAGCACTACGAACAACTAA
binding result [7]: no binding | Kd [8]: 0.14 µM
